Measurements from patent US6897054 (JAPAN SCIENCE AND TECHNOLOGY AGENCY, dated 2005).

Biological target: T1, huCdc7 fused to DNA-binding domain of Gal4 (human, UniProt P04386 1-147; O00311 1-574, limits assumed)
T1 construct: Yeast two-hybrid bait in strain CG1945; also called huCdc7 (two-hybrid bait)
Assay: yeast two-hybrid assay, lacZ activity
Procedure: In order to determine the region on H37 protein essential for binding with huCdc7, a series of deletion derivatives of H37 at N- and C-terminals as shown in FIG. 7 was prepared, each of them was expressed in yeast as a fusion protein with Gal4 activated domain and an interaction of each deletion derivative with huCdc7 was investigated by means of a two-hybrid assay. […] However, when 50 amino acids at N-terminal were further deleted whereupon the H37 motif C was deleted, an interaction with huCdc7 was completely lost (ΔN3).

binding result	interaction relative to the full-length clone [%]	Binder
no binding		H37 deletion derivative ΔN3 fused to Gal4 activation domain (other, not shown: small tags and cut ends, The range is worked out from the printed counts of deleted residues and a length of 674) LETHLLSEQHRNFAQSNQYQVVDDIVSKLVFDFVEYEKDTPKKKRIKYSVGSLSPVSASVLKKTEQKEKVELQHISQKDCQEDDTTVKEQNFLYKETQETEKKLLFISEPIPHPSNELRGLNEKMSNKCSMLSTAEDDIRQNFTQLPLHKNKQECILDISEHTLSENDLEELRVDHYKCNIQASVHVSDFSTDNSGSQPKQKSDTVLFPAKDLKEKDLHSIFTHDSGLITINSSQEHLTVQAKAPFHTPPEEPNECDFKNMDSLPSGKIHRKVKIILGRNRKENLEPNAEFDKRTEFITQEENRICSSPVQSLLDLFQTSEEKSEFLGFTSYTEKSGICNVLDIWEEENSDNLLTAFFSSPSTSTFTGF
no binding		H37 deletion derivative ΔP1 fused to Gal4 activation domain (other, not shown: small tags and cut ends) MNSGAMRIHSKGHFQGGIQVKNEKNRPSLKSLKTDNRPEKSKCKPLWGKVFYLDLPSVTISEKLQKDIKDLGGRVEEFLSKDISYLISNKKEAKFAQTLGRISPVPSPESAYTAETTSPHPSHDGSSFKSPDTVCLSRGKLLVEKAIKDHDFIPSNSILSNALSWGVKILHIDDIRYYIEQKKKELYLLKKSSTSVRDGGKRVGSGAQKTRTGRLKKPFVKVEDMSQLYRPFYLQ
	~10	H37 deletion derivative ΔB fused to Gal4 activation domain (other, not shown: small tags and cut ends, The range is worked out from the printed count of deleted residues and a length of 674; also called deltaB) MNSGAMRIHSKGHFQGGIQVKNEKNRPSLKSLKTDNRPEKSKCKPLWGKVFYLDLPSVTISEKLQKDIKDLGGRVEEFLSKDISYLISNKKEAKFAQTLGRISPVPSPESAYTAETTSPHPSHDGSSFKSPDTVCLSRGKLLVEKAIKDHDFIPSNSILSNALSWGVKILHIDDIRYYIEQKKKELYLLKKSSTSVRDGGKRVGSGAQKTRTGRLKKPFVKVEDMSQLYRPFYLQLTNMPFINYSIQKPCSPFDVDKPSSMQKQTQVKLRIQTDGDKYGGTSIQLQLKEKKKKGYCECCLQKYED
